The values below are quoted from earlier work in publication PMC7955094.

For the data set, the target named is His19 (UniProt position 19, ILSALHFMAWT). The following applies: membrane-bound BM2 tetramer, wild type.

With “Influenza B virus M2 protein (BM2) proton channel (Influenza B virus (this article's own samples use strain B/Maryland/1/2001; the strain of the quoted pKa study is not stated))”, the pKa (commonly the negative logarithm of the acid dissociation constant) is on record as 5.1.
